The data set deals with T1, NtHY5 (6xHis-HY5) (Nicotiana tabacum, UniProt A0A1S3YJY6 1-158).
T1 sequence: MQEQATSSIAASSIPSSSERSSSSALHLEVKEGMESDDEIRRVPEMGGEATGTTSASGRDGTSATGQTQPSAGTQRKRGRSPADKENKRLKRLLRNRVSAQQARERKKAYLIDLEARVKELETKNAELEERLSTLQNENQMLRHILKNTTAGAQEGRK
In words: EMSA. For orientation: Mobility shift assays separate free from complexed probe on a gel.

B1: NtODC P1 (G-BOX I) (dsDNA)
DNA 1: ATCTGATCACCTAACGTGACCAAGAAAATA
DNA 2: TATTTTCTTGGTCACGTTAGGTGATCAGAT
For B1, the binding result is reported as “binds”.

B2: NtPMT Mut P1 (G-mut I) (dsDNA)
DNA 1: CAGTCTAACCATGATTAATGTAATGATTTT
DNA 2: AAAATCATTACATTAATCATGGTTAGACTG
For B2, the binding result is “no binding”.

B3: NtMYB12 P1 (G-BOX I) (dsDNA)
DNA 1: AACTTGAAATAATACGTTAAAAGATAAAA
DNA 2: TTTTATCTTTTAACGTATTATTTCAAGT
Consider B3, for which the binding result is given as “binds”.

B4: NtPMT P1 (G-BOX I) (dsDNA)
DNA 1: CAGTCTAACCATGCACGTTGTAATGATTTT
DNA 2: AAAATCATTACAACGTGCATGGTTAGACTG
For the molecule B4, the binding result is recorded as “binds”.

B5: NtQPT P1 (G-BOX I) (dsDNA)
DNA 1: CATAAATAAAACGTGTTCAGCTACTAAAAC
DNA 2: GTTTTAGTAGCTGAACACGTTTTATTTATG
Consider B5, for which the binding result is reported as “binds”.

B6: NtPMT P2 (G-BOX II) (dsDNA)
DNA 1: TACTGTTTCCGCAACGTGCTCTTCATCAGG
DNA 2: CCTGATGAAGAGCACGTTGCGGAAACAGTA
B6: the binding result is listed as “binds”.

B7: NtPMT Mut P2 (G-mut II) (dsDNA)
DNA 1: TACTGTTTCCGCAATCTTCTCTTCATCAGG
DNA 2: CCTGATGAAGAGAAGATTGCGGAAACAGTA
In the case of B7, the binding result is listed as “no binding”.

B8: NtQPT Mut P1 (dsDNA)
DNA 1: CATAAATAAAATTCATTCAGCTACTAAAAC
DNA 2: GTTTTAGTAGCTGAATGAATTTTATTTATG
B8: the binding result is reported as “no binding”.

B9: NtODC Mut P1 (dsDNA)
DNA 1: ATCTGATCACCTAATATCACCAAGAAAATA
DNA 2: TATTTTCTTGGTGATATTAGGTGATCAGAT
For the molecule B9, the binding result was “no binding”.

B10: NtMYB12 P2 (G-BOX II) (dsDNA)
DNA 1: AGTCAACTTTGCAACGTAAAAGTCCACACA
DNA 2: TGTGTGGACTTTTACGTTGCAAAGTTGACT
On to B10, for which the binding result is listed as “binds”.

The record behind these values is paper doi:10.1101/2022.01.05.475064.
